Experimental findings from article PMC5482835 are described below.

For assay [1], the target named is GPI-YFP, a fusion protein containing the total sequence of YFP fused to a glycosylphosphatidylinositol (GPI)-membrane attachment signal. The experiment in a line: cross-linking; intact CHO-K1 cells, 2 mM membrane-impermeable BS3, 4 °C, 45 min, quenched with 50 mM glycine; SDS-PAGE and Western blot. For orientation: In western blotting, separated proteins are transferred to a membrane and probed.

For assay [2], the target named is caveolin-1 (Chinese hamster (endogenous in CHO-K1)). The experiment in a line: cross-linking; intact CHO-K1 cells, 0.5 mM membrane-permeable DSP, room temperature, 45 min, quenched with 50 mM glycine; SDS-PAGE and Western blot; cross-link reversed by beta-mercaptoethanol.
The target of assay [3] is full-length human Neu3 tagged at the C-terminus with a c-Myc epitope (human). Kind of assay: non-reducing SDS-PAGE with Western blot; total homogenates of NEU3-transfected CHO-K1 cells separated by SDS-PAGE with or without 5% beta-mercaptoethanol; blotted with anti-Neu3 antibody.

By stoichiometry N is commonly meant a count of units in the complex or per binding partner.

Consider “GPI-YFP, a fusion protein containing the total sequence of YFP fused to a glycosylphosphatidylinositol (GPI)-membrane attachment signal”, for which the stoichiometry N in assay [1] worked out at 2. In assay [2], caveolin-1 (natural protein) yielded a stoichiometry N of 2. Regarding “full-length human Neu3 tagged at the C-terminus with a c-Myc epitope (enzyme)”, in assay [3], the percent of the total enzyme in the ~125 kDa band is 25% and the stoichiometry N is 2.
